{
  "source": "paper PMC2909917",
  "about": "“Dynamic Subunit Exchange and the Regulation of Microtubule Assembly by the Stress Response Protein Human αB Crystallin” (PLoS ONE, 2010)",
  "proteins": {"B1": {"name": "human αB crystallin (natural protein, UniProt P02511 1-175, looked up)", "chain": "MDIAIHHPWIRRPFFPFHSPSRLFDQFFGEHLLESDLFPTSTSLSPFYLRPPSFLRAPSWFDTGLSEMRLEKDRFSVNLDVKHFSPEELKVKVLGDVIEVHGKHEERQDEHGFISREFHRKYRIPADVDPLTITSSLSSDGVLTVNGPRKQVSGPERTIPITREEKPAVTAAPKK", "notes": "human αB crystallin, expressed from a human αB crystallin pET16b plasmid; 20 kDa on SDS-PAGE; Polydisperse complex; pET16b can add an N-terminal His tag, but purification was by anion exchange and SEC, so the protein is probably untagged (surmise); also called small heat shock protein (sHSP); source: E. coli BL21 (DE3), purified (Q Sepharose Fast Flow, Superdex 200); copies: 24"}},
  "target": "the molecule itself",
  "assay": "SEC; 128 µM αB crystallin alone in 20 mM tris-HCl, 160 µM MgCl2, 40 µM EGTA, pH 8.0; Biosep SEC-S4000, eluted in 20 mM tris-Cl pH 8.0 at 4°C; size from calibration proteins (apparent); subunits to polydisperse complex",
  "data": [
    {"protein": "B1", "values": [
      {"measurement": "stoichiometry N", "result": 24, "unit": "subunits"}
    ]}
  ]
}
